# Tests used:
# [1] = target: Recombinant human NGF (Sigma) (human, UniProt P01138 122-241); test: cell-based or functional assay
# [2] = target: Recombinant mouse NGF (R&D Systems) (mouse, UniProt P01139 122-241); test: cell-based or functional assay
# Sequence of Recombinant mouse NGF (R&D Systems) (P01139 122-241 limits assumed): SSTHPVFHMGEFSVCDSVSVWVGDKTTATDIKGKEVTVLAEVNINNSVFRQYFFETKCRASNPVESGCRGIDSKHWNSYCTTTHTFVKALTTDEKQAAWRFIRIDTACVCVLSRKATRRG
# Sequence of Recombinant human NGF (Sigma) (P01138 122-241 limits assumed): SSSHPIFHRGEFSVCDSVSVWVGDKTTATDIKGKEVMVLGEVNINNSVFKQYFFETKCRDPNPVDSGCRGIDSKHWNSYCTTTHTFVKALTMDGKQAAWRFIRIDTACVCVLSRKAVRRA
binder,measurement,setting,value
"MEDI-578 IgG1 TM YTE (antibody, V domains shown) VH: QVQLVQSGAEVKKPGSSVKVSCKASGGTFSTYGISWVRQAPGQGLEWMGGIIPIFDTGNSAQSFQGRVTITADESTSTAYMELSSLRSEDTAVYYCARSSRIYDLNPSLTAYYDMDVWGQGTMVTVSS VL: QSVLTQPPSVSAAPGQKVTISCSGSSSNIGNNYVSWYQQLPGTAPKLLIYDNNKRPSGIPDRFSGSKSGTSATLGITGLQTGDEADYYCGTWDSSLSAWVFGGGTKLTVL",IC50 (read off the curve),[1],~0.8 nM
same,IC50 (read off the curve),[2],~0.3 nM

# Reference: patent publication US20240026036A1 (AstraZeneca / MedImmune, published 2024)
